Measured values from publication doi:10.1101/249060 (bioRxiv, 2018).
Positions count from the first letter of the chain named. Names may count otherwise.

B1: PafE-PafE linear dimer (PafE_(1-155)-PafE_(1-174)) (other)
chain: MVIGLSTGSDDDDVEVIGGVDPRLIAVQENDSDESSLTDLVEQPAKVMRIGTMIKQLLEEVRAAPLDEASRNRLRDIHATSIRELEDGLAPELREELDRLTLPFNEDAVPSDAELRIAQAQLVGWLEGLFHGIQTALFAQQMAARAQLQQMRQGAGSGNSMVIGLSTGSDDDDVEVIGGVDPRLIAVQENDSDESSLTDLVEQPAKVMRIGTMIKQLLEEVRAAPLDEASRNRLRDIHATSIRELEDGLAPELREELDRLTLPFNEDAVPSDAELRIAQAQLVGWLEGLFHGIQTALFAQQMAARAQLQQMRQGALPPGVGKSGQHGHGTGQYL
B2: His6-PafE, wild type, purified alone (natural protein)
chain: MVIGLSTGSDDDDVEVIGGVDPRLIAVQENDSDESSLTDLVEQPAKVMRIGTMIKQLLEEVRAAPLDEASRNRLRDIHATSIRELEDGLAPELREELDRLTLPFNEDAVPSDAELRIAQAQLVGWLEGLFHGIQTALFAQQMAARAQLQQMRQGALPPGVGKSGQHGHGTGQYL
B3: PafE_(F138E) (natural protein)
chain: B2 chain with F138E
B4: PafE_(P65G) (natural protein)
chain: B2 chain with P65G

Molecular target: the molecule itself
Test: SEC

Row | Protein | binding result
1 | B1 | binds
2 | B2 | binds
3 | B3 | binds
4 | B4 | binds
